Data published in paper PMC9933118 (Proceedings of the National Academy of Sciences of the …, 2023).
Values belong to the binder of their own block, whether it stands above or below them.

Assays:
[1] = molecular target: GST-ZF456 (Homo sapiens, UniProt Q9H165); test: pull-down
[2] = molecular target: Twin-Strep-tagged ZF456 (Homo sapiens, UniProt Q9H165); test: SPR
[3] = molecular target: ZF456 of BCL11B (Homo sapiens (assumed, as for BCL11A), UniProt Q9C0K0); test: AlphaScreen or HTRF
[4] = molecular target: BCL11A ZF456 (residues 737 to 835) (Homo sapiens, UniProt Q9H165, 15N-labelled in the NMR experiment)
[5] = molecular target: biotinylated ZF456 protein (BCL11A) (Homo sapiens, UniProt Q9H165, biotin (site not stated)); test: AlphaScreen or HTRF
Sequence of biotinylated ZF456 protein (BCL11A) (Q9H165 737-835): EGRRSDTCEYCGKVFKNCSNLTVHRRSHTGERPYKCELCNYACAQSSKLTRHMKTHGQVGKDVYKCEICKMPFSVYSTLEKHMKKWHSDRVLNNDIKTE

Sequence of Twin-Strep-tagged ZF456 (Q9H165 737-835): as above
Sequence of BCL11A ZF456 (residues 737 to 835) (Q9H165 737-835): as above
Sequence of GST-ZF456 (Q9H165 737-835): as above
Sequence of ZF456 of BCL11B (Q9C0K0 whole entry, looked up, the tested form may be a part): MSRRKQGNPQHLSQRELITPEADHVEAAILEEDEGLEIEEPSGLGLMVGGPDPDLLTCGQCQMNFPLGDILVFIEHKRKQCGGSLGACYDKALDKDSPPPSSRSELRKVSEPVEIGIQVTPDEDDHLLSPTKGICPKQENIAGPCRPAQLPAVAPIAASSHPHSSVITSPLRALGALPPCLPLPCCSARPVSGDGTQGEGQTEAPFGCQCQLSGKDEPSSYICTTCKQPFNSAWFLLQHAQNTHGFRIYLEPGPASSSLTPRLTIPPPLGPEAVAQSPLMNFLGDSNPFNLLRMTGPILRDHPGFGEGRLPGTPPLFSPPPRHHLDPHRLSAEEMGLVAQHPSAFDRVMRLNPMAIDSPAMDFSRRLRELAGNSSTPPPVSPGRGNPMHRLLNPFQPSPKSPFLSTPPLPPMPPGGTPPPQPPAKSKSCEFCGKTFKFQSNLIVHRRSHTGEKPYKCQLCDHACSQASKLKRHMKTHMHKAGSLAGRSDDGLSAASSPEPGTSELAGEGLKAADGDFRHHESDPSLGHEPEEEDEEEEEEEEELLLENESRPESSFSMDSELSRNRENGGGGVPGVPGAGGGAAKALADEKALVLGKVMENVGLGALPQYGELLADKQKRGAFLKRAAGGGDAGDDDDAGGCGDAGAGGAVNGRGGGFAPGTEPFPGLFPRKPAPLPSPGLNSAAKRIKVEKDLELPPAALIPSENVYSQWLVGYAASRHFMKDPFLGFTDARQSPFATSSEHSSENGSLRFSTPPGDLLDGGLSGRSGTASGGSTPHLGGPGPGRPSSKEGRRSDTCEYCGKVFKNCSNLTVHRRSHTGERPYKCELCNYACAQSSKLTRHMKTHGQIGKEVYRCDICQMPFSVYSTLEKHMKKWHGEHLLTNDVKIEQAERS

B2: Nb6101(M45D) (VHH)
VHH: RVQLVESGGGLVQAGGSLRLSCAASGFIFDSYAMGWYRQAPGKEDELVAAITSSGSSTYYADSVKGRFTISRDNAKNTVYLQMNSLKPEDTAVYYCAALDYVIDGYWGQGTQVTVSS
Kd [2]: 157 ± 9 nM | fold improvement of binding affinity against Nb6101 [2]: ~6 fold

B4: Nb5344 (VHH)
VHH: SGGGLVQAGDSLRLSCAASGSTFSGYAMGWYRQAPGKERELVAAITSSGASTYYADSVRGRFTISRDNAKNTVYLQMNSLKPEDTAVYYCAALDEGYLDYDSWGQGTQVTVSS
Kd [4]: 3420 ± 80 nM

B5: Nb5344(N74D) (VHH)
VHH: SGGGLVQAGDSLRLSCAASGSTFSGYAMGWYRQAPGKERELVAAITSSGASTYYADSVRGRFTISRDDAKNTVYLQMNSLKPEDTAVYYCAALDEGYLDYDSWGQGTQVTVSS
Kd [4]: 1200 ± 50 nM

B6: Nb6101-14 (VHH)
VHH: RVQLVESGGGLVQAGGSLRLSCAADGFDFSSYAMGWYRQAPGYEDELVAAITASGSYTYYSDSVKGRFTISRDNAKNTVYLQMNSLKPEDTAVYYCAALSYVAEGYWGQGTQVTVSS
Kd [5]: 26.7 ± 0.7 nM

B9: Nb6101-19 (VHH)
VHH: RVQLVESGGGLVQAGGSLRLSCAADGFDFKSYAMGWYRQAPGREDELVAAITASGDYTYYADSVKGRFTISRDNAKNTVYLQMNSLKPDDTAVYYCAALSYVAEGYWGQGTQVTVSS
Kd [5]: 21.9 ± 0.4 nM

Results, then the binder that gave them:

binding result [1]: binds
B1: Nb61 (VHH)
VHH: QVQLVESGGGLVQAGGSLRLSCAASGFIFDSYAMGWYRQAPGKERELVAAITSSGSSTYYADSVKGRFTISRDNAKNTVYLQMNSLKPEDTAVYYCAALDYVIDGYWGQGTQVTVSS

binding result [3]: no binding
B3: Nb6101 (VHH)
VHH: RVQLVESGGGLVQAGGSLRLSCAASGFIFDSYAMGWYRQAPGKEMELVAAITSSGSSTYYADSVKGRFTISRDNAKNTVYLQMNSLKPEDTAVYYCAALDYVIDGYWGQGTQVTVSS

Kd [5]: 54.6 ± 0.9 nM
B7: Nb6101-22 (VHH)
VHH: RMQLVESGGGLVQAGGSLRLSCAADGFDFSSYAMGWYRQAPGREDELVAAITASGSYTYYSDSVKGRFTISRDNAKNTVYLQMNSLKPDDTAVYYCAALSYVAEGYWGQGTQVTVSS

Kd [5]: 77.2 ± 0.5 nM
B8: Nb6101-20 (VHH)
VHH: RVQLVESGGGLVQAGGSLRLSCAADGFDFKSYAMGWYRQAPGYEDELVAAITASGSYTYYSDSVKGRFTISRDNAKNTVYLQMNSLKPEDTAVYYCAALSYVAEGYWGQGTQVTVSS
